Molecular target: Human PLA2G1B (phospholipase A2 group 1B), active form (human) (UniProt P04054)

“Recombinant HIV-1 gp41 MN protein (gp41 MN (565-771Delta642-725)) (from UniProt P05877 565-771) (domain or fragment)” showed a PLA2G1B enzymatic activity ([3H]AA release from labeled human CD4 T cells), PLA2G1B 63 nM, gp41 0.68 nM-340 nM greater than 20 fold.

— PMC8981723
